# Reference: US20050287149A1 (Bristol-Myers Squibb, published 2005)
# Numbering of substitutions follows the chain as printed.
# B1: human monoclonal antibody 5D5 (antibody, V domains shown)
# VH: QVQLVESGGGVVQPGRSLRLSCAASGFTFSSYGMHWVRQAPGKGLEWVAVIWYDGSNKYYADSVKGRFTISRDNSKNTLYLQMNSLRAEDTAVYYCAREGNRSHYIPFAYWGQGTLVTVSS
# VL: DIQMTQSPSSLSASVGDRVTITCRASQGISSWLAWYQQKPEKAPKSLIYAASSLQSGVPSRFSGSGSGTDFTLTISSLQPEDFATYYCQQYNSYPRTFGGGTKVEIK
# notes: also called HuMab 5D5; 5D5-2E10
# B2: human monoclonal antibody 2H4 (antibody, V domains shown)
# VH: EVHLVESGGGLVQPGGSLRLSCAASGFTFSSYWMSWVRQAPGKGLEWVANINQYGSEKYYVDSVKGRFTISRDNAKNSLYLQMNSLRAEDTAVYYCARDSPYYYGSGSYYRGYWYFDLWGRGTLVTVSS
# VL: B1 VL with R96P, G100Q, K103R, V104L
# notes: also called HuMab 2H4
# B3: human monoclonal antibody 2D5 (antibody, V domains shown)
# VH: QVQLVESGGGVVQPGRSLRLSCAASGFTFSSYGMHWVRQAPGKGLEWVAVIWNDGSNKYYADSVKGRFTISRDNSKNTLYLQMNSLRAEDTAVYYCARENWGEYFDYWGQGTLVTVSS
# VL: AIQLTQSPSSLSASVGDRVTITCRASQGISSALAWYQQKPGKAPKLLIYDASSLKSGVPSRFSGSGSGTDFTLTISSLQPEDFATYYCQQFNSYWTFGQGTKVEIK
# notes: also called HuMab 2D5
# Molecular target: T1, Bacillus anthracis protective antigen, full-length 83 kD form (PA83) (Bacillus anthracis, UniProt P13423 30-764)
# T1 construct: mature; also called rPA-83; full length PA 83
# T1 sequence (P13423 30-764): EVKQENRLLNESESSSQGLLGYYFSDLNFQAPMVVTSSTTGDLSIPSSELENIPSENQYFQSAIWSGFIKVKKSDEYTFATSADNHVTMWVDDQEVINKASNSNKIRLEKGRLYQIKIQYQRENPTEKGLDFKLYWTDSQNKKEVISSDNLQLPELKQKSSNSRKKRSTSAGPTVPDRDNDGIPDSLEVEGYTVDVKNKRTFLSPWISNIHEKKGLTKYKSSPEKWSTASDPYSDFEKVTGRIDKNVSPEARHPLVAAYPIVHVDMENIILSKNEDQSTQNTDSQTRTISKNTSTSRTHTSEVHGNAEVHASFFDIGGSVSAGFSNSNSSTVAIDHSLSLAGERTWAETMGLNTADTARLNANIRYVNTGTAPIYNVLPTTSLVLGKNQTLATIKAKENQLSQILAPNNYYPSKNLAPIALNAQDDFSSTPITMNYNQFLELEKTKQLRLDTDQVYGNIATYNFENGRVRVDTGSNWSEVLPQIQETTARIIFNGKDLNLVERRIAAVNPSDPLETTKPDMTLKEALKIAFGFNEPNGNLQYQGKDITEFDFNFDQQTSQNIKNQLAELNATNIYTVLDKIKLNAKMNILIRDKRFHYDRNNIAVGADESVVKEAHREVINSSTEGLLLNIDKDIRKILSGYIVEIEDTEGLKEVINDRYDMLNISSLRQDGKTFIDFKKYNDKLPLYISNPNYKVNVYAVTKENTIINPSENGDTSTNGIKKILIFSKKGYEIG
# Experiment: ELISA, plate coated with PA83 (FIG. 11)
row,Binder,binding result
1,B1,binds
2,B2,binds
3,B3,binds

# Molecular target: T2, Bacillus anthracis protective antigen, cleaved 63 kD form (PA63) (Bacillus anthracis, UniProt P13423 197-764)
# T2 construct: also called cleaved protective antigen (63 kD); active fragment of PA
# T2 sequence (P13423 197-764 limits assumed): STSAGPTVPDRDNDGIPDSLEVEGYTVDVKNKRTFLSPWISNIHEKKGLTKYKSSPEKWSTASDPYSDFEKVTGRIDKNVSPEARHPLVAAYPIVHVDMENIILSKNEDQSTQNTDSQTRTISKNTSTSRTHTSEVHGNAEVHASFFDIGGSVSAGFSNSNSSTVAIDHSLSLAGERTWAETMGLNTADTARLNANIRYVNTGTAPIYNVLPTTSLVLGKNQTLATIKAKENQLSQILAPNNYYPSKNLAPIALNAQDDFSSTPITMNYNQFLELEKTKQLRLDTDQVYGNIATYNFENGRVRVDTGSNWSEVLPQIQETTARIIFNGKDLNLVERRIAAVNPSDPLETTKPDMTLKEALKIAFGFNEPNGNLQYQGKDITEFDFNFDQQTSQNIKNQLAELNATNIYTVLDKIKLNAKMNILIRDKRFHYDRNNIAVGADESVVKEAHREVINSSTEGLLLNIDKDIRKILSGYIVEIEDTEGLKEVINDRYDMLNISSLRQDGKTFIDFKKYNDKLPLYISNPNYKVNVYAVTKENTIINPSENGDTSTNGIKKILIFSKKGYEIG
# Experiment: ELISA, plate coated with PA63 (FIG. 11)
row,Binder,binding result
1,B1,binds
2,B2,binds
3,B3,binds
